Source: US20240002540A1

Columns and labels:
[1] = target: FcγRI recombinant protein, His-tagged (UniProt P12314); test: SPR (Biacore), His-tagged receptor captured by anti-His antibody on CM5 chip, antibody as analyte
[2] = target: human CD3 on T cells (Jurkat cells; human peripheral blood CD4+ and CD8+ T-cells) (human) (UniProt P07766); test: flow cytometry on Jurkat cells

Sequence of FcγRI recombinant protein, His-tagged (P12314 16-288 limits assumed): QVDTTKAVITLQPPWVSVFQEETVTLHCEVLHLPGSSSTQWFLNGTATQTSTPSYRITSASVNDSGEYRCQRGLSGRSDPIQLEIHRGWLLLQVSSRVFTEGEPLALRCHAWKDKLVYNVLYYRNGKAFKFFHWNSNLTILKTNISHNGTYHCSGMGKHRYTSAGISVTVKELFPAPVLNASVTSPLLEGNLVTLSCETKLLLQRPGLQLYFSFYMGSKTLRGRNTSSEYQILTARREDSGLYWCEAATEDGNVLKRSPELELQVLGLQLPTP

Kd [1] [nM]	affinity, FACS (Jurkat) [2] [nM]	Substance
14	–	IgG4 isotype control (antibody)
–	0.27	OKT3-hIgG1 (antibody)
